Patent US20250042956A1 (University of California, published 2025)

Tests used:
AT1G49950.3 TRB1 = target: T1, AT1G49950.3 TRB1 (Arabidopsis thaliana, UniProt Q8VWK4 1-300, limits assumed); assay: IP-MS rep 1
T1 construct: Endogenous protein found by mass spectrometry
T1 sequence: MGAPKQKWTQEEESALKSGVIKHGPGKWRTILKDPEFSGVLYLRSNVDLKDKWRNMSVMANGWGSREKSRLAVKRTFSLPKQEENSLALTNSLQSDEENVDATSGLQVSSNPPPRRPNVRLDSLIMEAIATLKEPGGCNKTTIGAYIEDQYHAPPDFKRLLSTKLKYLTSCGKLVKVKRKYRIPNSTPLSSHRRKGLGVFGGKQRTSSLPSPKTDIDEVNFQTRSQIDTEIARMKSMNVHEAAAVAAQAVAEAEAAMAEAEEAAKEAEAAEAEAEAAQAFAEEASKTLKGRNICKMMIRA
Method in brief: (§1)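 Peptide counts for co-purified proteins come from mass spectrometry of proteins pulled down from Arabidopsis floral buds with anti-FLAG magnetic beads. Ten grams of unopened buds from wild-type and FLAG-tagged transgenic lines were ground in liquid nitrogen and homogenised in 25 mL IP buffer. Lysates were held with 250 μL anti-FLAG M2 magnetic beads at 4° C for 2 hours, and bound proteins were eluted in TBS with 250 μg/mL 3×FLAG peptides.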

AT2G23380.1 CLF [1] = target: T2, AT2G23380.1 CLF (Arabidopsis thaliana, UniProt P93831 1-902); assay: IP-MS rep 1
T2 construct: Endogenous protein found by mass spectrometry; also called CURLY LEAF
T2 sequence (looked up): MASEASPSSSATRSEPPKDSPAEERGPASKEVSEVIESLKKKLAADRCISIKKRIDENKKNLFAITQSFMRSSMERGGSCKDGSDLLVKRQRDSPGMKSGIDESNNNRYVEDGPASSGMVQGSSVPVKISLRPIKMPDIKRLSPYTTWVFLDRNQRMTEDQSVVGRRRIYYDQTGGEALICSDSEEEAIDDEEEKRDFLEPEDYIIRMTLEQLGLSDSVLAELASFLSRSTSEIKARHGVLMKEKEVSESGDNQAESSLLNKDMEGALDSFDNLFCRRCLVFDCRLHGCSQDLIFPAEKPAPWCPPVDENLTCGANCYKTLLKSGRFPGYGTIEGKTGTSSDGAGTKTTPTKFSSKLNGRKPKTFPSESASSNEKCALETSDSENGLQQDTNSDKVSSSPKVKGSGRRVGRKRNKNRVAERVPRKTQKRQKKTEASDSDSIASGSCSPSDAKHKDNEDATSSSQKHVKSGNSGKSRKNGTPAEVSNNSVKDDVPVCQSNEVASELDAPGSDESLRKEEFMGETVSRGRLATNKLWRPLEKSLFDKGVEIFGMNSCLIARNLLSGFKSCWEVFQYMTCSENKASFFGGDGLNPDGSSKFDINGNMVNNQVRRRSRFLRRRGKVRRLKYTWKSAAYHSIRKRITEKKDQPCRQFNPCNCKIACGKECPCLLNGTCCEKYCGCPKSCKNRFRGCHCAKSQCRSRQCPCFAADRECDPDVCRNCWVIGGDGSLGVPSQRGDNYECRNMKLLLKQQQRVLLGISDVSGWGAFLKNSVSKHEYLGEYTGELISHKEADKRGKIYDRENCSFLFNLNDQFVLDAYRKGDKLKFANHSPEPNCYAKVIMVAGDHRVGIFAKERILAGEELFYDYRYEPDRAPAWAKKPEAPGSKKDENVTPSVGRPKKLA
Method in brief: as §1

AT5G67580.1 TRB2 = target: T3, AT5G67580.1 TRB2 (Arabidopsis thaliana, UniProt Q9FJW5 1-299); assay: IP-MS rep 1
T3 construct: Endogenous protein found by mass spectrometry
T3 sequence: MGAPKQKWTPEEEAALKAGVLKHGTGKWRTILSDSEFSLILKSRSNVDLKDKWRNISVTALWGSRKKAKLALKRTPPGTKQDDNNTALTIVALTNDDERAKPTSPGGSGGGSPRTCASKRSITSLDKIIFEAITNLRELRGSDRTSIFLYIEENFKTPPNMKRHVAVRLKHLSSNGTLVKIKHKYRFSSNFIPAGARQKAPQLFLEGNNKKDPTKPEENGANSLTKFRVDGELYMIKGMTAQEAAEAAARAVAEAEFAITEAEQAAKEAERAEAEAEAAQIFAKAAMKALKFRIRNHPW
Method in brief: as §1

AT3G10480.3 NAC050 = target: T4, AT3G10480.3 NAC050 (Arabidopsis thaliana, UniProt Q9SQX9 1-447, limits assumed); assay: IP-MS rep 1
T4 construct: Endogenous protein found by mass spectrometry
T4 sequence (looked up): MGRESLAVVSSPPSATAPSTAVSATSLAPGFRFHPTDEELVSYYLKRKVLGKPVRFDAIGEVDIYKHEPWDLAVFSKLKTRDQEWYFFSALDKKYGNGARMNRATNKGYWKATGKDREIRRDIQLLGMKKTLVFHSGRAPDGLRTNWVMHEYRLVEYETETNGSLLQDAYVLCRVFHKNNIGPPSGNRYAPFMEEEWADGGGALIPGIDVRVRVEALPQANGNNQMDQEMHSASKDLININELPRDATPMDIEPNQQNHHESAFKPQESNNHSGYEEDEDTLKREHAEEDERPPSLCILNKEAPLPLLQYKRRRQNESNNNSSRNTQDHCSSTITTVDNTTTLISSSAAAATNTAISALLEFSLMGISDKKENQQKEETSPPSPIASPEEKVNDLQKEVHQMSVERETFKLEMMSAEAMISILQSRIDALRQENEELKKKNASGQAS
Method in brief: as §1

AT2G23380.1 CLF [2] = target: T2, AT2G23380.1 CLF; assay: IP-MS rep 2
Method in brief: as §1

AT5G51230.1 EMF2 = target: T5, AT5G51230.1 EMF2 (Arabidopsis thaliana, UniProt Q8L6Y4 1-631); assay: IP-MS rep 2
T5 construct: Endogenous protein found by mass spectrometry; also called EMBRYONIC FLOWER 2
T5 sequence (looked up): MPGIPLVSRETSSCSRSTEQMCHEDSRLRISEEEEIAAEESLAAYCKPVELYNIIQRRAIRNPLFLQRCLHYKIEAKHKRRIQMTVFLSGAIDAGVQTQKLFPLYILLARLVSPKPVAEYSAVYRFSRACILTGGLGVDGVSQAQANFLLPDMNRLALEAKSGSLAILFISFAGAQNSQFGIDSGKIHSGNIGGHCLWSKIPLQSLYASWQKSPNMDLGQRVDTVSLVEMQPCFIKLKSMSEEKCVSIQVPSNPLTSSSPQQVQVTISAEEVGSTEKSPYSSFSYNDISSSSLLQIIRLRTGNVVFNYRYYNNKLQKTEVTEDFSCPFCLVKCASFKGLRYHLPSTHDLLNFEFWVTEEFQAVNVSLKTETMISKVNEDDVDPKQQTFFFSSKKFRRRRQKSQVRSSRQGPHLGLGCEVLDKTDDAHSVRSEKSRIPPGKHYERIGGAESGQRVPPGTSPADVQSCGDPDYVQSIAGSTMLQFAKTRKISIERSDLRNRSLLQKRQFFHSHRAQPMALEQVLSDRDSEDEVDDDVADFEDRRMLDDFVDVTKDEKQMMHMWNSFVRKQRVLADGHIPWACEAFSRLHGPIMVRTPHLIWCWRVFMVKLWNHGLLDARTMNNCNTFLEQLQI
Method in brief: as §1

IP-MS count (AT1G49950.3 TRB1): 26
IP-MS count (AT2G23380.1 CLF [1]): 0
IP-MS count (AT5G67580.1 TRB2): 43
IP-MS count (AT3G10480.3 NAC050): 1
IP-MS count (AT2G23380.1 CLF [2]): 0
IP-MS count (AT5G51230.1 EMF2): 0
B1: TRBIP2 (bait of the TRBIP2 IP-MS) (other, not shown: small tags and cut ends)
chain: MATNACLESDSLLPPRKRLLAGFKNQNSRISNESPSPPFASSSSSTTTSNGSSASAVVHTHHLDHLLNDQTRSPEELAQASKATAALAVKVAKAARATANEKAIIASKAVAAAKNALELFASFPAAETVSCKEPRLIRAINNSPRVLTDCSGHRNKKQKTLTSTMNDGNDVAGVVDSDDGTRVNGKLLLCDNTLKEKTEEESSSLGKRRGRVKLPLSMCAYKDQENGITLEENNLSVSKSEGYNGGVAQVIERPSWKCQDLKSPECVKQNKVVRS
notes: tag and its position not described; also called TRBIP2-1; TRBIP2-2
